Test results from US12545745B2, “Method for treating a degenerative neurological disorders comprising administering ASM inhibitor” (KYUNGPOOK NATIONAL UNIVERSITY INDUSTRY-ACADEMIC COOPERATION …, priority 2013, dated 2026).

Assays:
Type in all cases: in vivo, mouse
[1] = tested on: ALS animal model (FUS R521C); assay: Motor function tests (Tail suspension, Hanging wire, Rotarod) in ALS animal model; details: ALS mice, 50 mg/kg i.p. twice weekly, vs PBS, FIG. 57A-57C
APP/PS1 mice [2] = assay: Fear conditioning test in APP/PS1 mice; details: 50 mg/kg i.p. twice weekly, vs PBS, FIG. 55D
From the text: More specifically, wild type mice, APP/PS1/ASM^+/− mice, ASM^+/− mice and APP/PS1 mice were used. On day 1 of the test, each mouse was individually placed into a conditioned chamber, and then after a 60-second exploratory period, a tone (10 kHz, 70 dB) was delivered for 10 seconds. This served as the conditioned stimulus (CS). The CS was coterminated with the unconditioned stimulus (US), an electrical footshock (0.3 mA, 1 s). The CS-US pairing was delivered twice at a 20-second intertrial interval. On day 2, each mouse was placed in the fear-conditioning chamber containing the same exact context, but without administration of a CS or footshock. […] On day 3, each mouse was placed in a test chamber that was different from the conditioning chamber. After a 60-second exploratory period, the tone was presented for 60 seconds without the footshock. Freezing response was measured to measure fear memory. The results are illustrated in FIG. 9 and FIG. 10.
For the fear conditioning test, on the first day, mice were placed in a conditioning chamber, and sound stimulation (10 kHz, 70 dB) and electrical stimulation (0.3 mA, 1 s) were given. On the second day, memory for space was checked without stimulation in the same conditioning chamber as on the first day, and on the third day, a memory test for fear was performed when only sound stimulation was given in another conditioning chamber.

APP/PS1 mice [3] = assay: Morris water maze (MWM) test in APP/PS1 mice; details: 50 mg/kg i.p. twice weekly, vs PBS, FIG. 55A-55C
Protocol: More specifically, wild type mice, APP/PS1/ASM^+/− mice, ASM^+/− mice and APP/PS1 mice were used. The mice were given four trials per day for 10 days to learn the task, and on day 11, the mice were given a probe trial in which the platform was removed. The escape latency during the test period and the time spent in the target platform on day 11 were measured. The results are illustrated in FIG. 7 and FIG. 8.
(§1) MWM (Morris water maze) experiments were performed in a conventional manner to identify potential effects on learning and memory. Briefly, for the MWM test, mouse were learned the task four times a day for 10 days, followed by the removal of the platform on the 11th day and subsequently a probe trial performed.
as §1, with “mice” for “mouse”

B1: ASM-ab 23A12C3: self-made monoclonal ASM antibody, Koma biotech; heavy chain SEQ ID NO. 29, light chain SEQ ID NO. 30 (antibody)
heavy: MGWSWIFLFLLSGTAGVHSEVQLQQSGPVLVKPGASVKMSCKASGYTFTDYYMNWVKQSHGKSLEWIGVINPYNDGTSYNQKFKGKATLTVDKSSSTAYMELNSLTSEDSAVYYCAREKLYYYGRDYAMDYWGQGTSVTVSSAKTTPPSVYPLAPGSAAQTNSMVTLGCLVKGYFPEPVTVTWNSGSLSSGVHTFPAVLQSDLYTLSSSVTVPSSTWPSQTVTCNVAHPASSTKVDKKIVPRDCGCKPCICTVPEVSSVFIFPPKPKDVLTITLTPKVTCVVVDISKDDPEVQFSWFVDDVEVHTAQTKPREEQINSTFRSVSELPIMHQDWLNGKEFKCRVNSAAFPAPIEKTISKTKGRPKAPQVYTIPPPKEQMAKDKVSLTCMITNFFPEDITVEWQWNGQPAENYKNTQPIMDTDGSYFVYSKLNVQKSNWEAGNTFTCSVLHEGLHNHHTEKSLSHSPGK
light: MSSAQFLGLLLLCFQGTRCDIQMTQTTSSLSASLGDRVTISCRSSQDISNYLNWCQQKPDGTVKLLIYYTSRLHSGVPSRFSGSGSGTDYSLTISNLEQEDIATYFCQQDNTLPYTFGGGTKLEIKRADAAPTVSIFPPSSEQLTSGGASVVCFLNNFYPKDINVKWKIDGSERQNGVLNSWTDQDSKDSTYSMSSTLTLTKDEYERHNSYTCEATHKTSTSPIVKSFNRNEC
modifications: 23A12C3_Heavy chain; 23A12C3_Light chain
notes: self-made monoclonal ASM antibody, Koma biotech; 30
improved: impairment in motor function [1] | impairments in spatial memory, cognition and memory formation (fear conditioning test) (APP/PS1 mice [2]) | impairments in spatial memory, cognition and memory formation (MWM) (APP/PS1 mice [3])
